{
  "source": "patent US20160145321A1",
  "binders": {"B1": {"name": "CB003.1 (antibody, V domains shown)", "VH": "QVQLVQSGPELRKPGASVTVSCKASGYTFTTYYIHWVRQAPGGGLDWMGMINTGSGVTSYAQKFQGRVAMTRDTSTSTVFMELSSLRFEDTALYYCARMYSGSWYPFDYWGQGALVTVSS", "VL": "EIVLTQSPGTLSLSPGERATLSCRASQNINGNYLAWYQQKPGLAPRLLIYEASSRATGIPDRFSGSGSGTDFTLTISSLEPEDFGVYYCQQYGTSPFFTFGPGTKVDIK"}, "B2": {"name": "CB010.7 (antibody, V domains shown)", "VH": "QVQLVESGGGVVQPGRSLRLSCAASGFTFNTHGMHWVRQAPGKGLEWVAVMSYDGTKKYHADSVKGRFTISRDNSKNTLYLQMNSLRVEDTAIYYCAKVGELRSFDWLLADGTAYYYYGMDVWGQGTTVTVSS", "VL": "not shown"}, "B3": {"name": "CR9505 (an antibody based on 131-2G, comprising the heavy and light chain variable region of 131-2G) (antibody, from another filing, V domains shown)", "VH": "EVQLQQSGPELVKPGTSVKISCKASGYSFTGFTMNWVKQSHGKNLEWFGLINPFNGNTGYNQKFKGKATLTVDKSSSTAFMELLSLTSEDSAVYYCARSGKSYDYEAWFTYWGQGTLVTVSA", "VL": "DIVMTQTTLSLPVSLGNQASISCRSSQTIVHTNGNTYLEWYLQKPGQSPKLLIYKVSNRFSGVPDRFSGSGSGTDFILNISRVEAEDLGVYYCFQGSHVPFTFGSGTKLEIKR"}},
  "key": {"[1]": {"molecular_target": "T1, Sym-1706 (RSV G central conserved domain (CCD) peptide, type A 145-184) (Respiratory syncytial virus type A)", "assay": "BLI (Octet Red384), biotinylated peptide on streptavidin sensor tips"}, "[2]": {"molecular_target": "T2, Sym-1705 (RSV-G type A central region peptide 145-201) (Respiratory syncytial virus type A)", "assay": "BLI (Octet Red384), biotinylated peptide on streptavidin sensor tips"}, "[3]": {"molecular_target": "T3, Sym-1788 (RSV-G type B central region peptide 145-201) (Respiratory syncytial virus type B)", "assay": "BLI (Octet Red384), biotinylated peptide on streptavidin sensor tips"}, "[4]": {"molecular_target": "T4, Sym-1789 (RSV-G type B central region peptide 145-184) (Respiratory syncytial virus type B)", "assay": "BLI (Octet Red384), biotinylated peptide on streptavidin sensor tips"}, "[5]": {"molecular_target": "T1, Sym-1706 (RSV G central conserved …)", "assay": "ELISA, antibody titrated on biotinylated peptide on avidin plates (FIG. 3)"}, "[6]": {"molecular_target": "T2, Sym-1705 (RSV-G type A central region …)", "assay": "ELISA, antibody titrated on biotinylated peptide on avidin plates (FIG. 3)"}, "[7]": {"molecular_target": "T3, Sym-1788 (RSV-G type B central region …)", "assay": "ELISA, antibody titrated on biotinylated peptide on avidin plates (FIG. 3)"}, "[8]": {"molecular_target": "T4, Sym-1789 (RSV-G type B central region …)", "assay": "ELISA, antibody titrated on biotinylated peptide on avidin plates (FIG. 3)"}, "[9]": {"molecular_target": "G protein of RSV A/Long (virus, ATCC Cat. No. VR-26) (Respiratory syncytial virus A/Long) (UniProt P20895)", "assay": "cell-based or functional assay"}},
  "data": [
    {"binder": "B1", "values": [
      {"measurement": "binding response (Octet) [RU]", "setting": "[1]", "result": 3.36, "unit": "RU"},
      {"measurement": "binding response (Octet) [RU]", "setting": "[2]", "result": 3.48, "unit": "RU"},
      {"measurement": "binding response (Octet) [RU]", "setting": "[3]", "result": 3.28, "unit": "RU"},
      {"measurement": "binding response (Octet) [RU]", "setting": "[4]", "result": 3.2, "unit": "RU"},
      {"measurement": "IC50", "setting": "[5]", "result": 0.02, "unit": "µg/mL"},
      {"measurement": "IC50", "setting": "[6]", "result": 0.02, "unit": "µg/mL"},
      {"measurement": "IC50", "setting": "[7]", "result": 0.02, "unit": "µg/mL"},
      {"measurement": "IC50", "setting": "[8]", "result": 0.02, "unit": "µg/mL"}
    ]},
    {"binder": "B2", "values": [
      {"measurement": "binding response (Octet) [RU]", "setting": "[1]", "result": 1.74, "unit": "RU"},
      {"measurement": "binding response (Octet) [RU]", "setting": "[2]", "result": 1.25, "unit": "RU"},
      {"measurement": "binding response (Octet) [RU]", "setting": "[3]", "result": 1.94, "unit": "RU"},
      {"measurement": "binding response (Octet) [RU]", "setting": "[4]", "result": 2.96, "unit": "RU"},
      {"measurement": "IC50", "setting": "[5]", "result": 0.02, "unit": "µg/mL"},
      {"measurement": "IC50", "setting": "[6]", "result": 0.02, "unit": "µg/mL"},
      {"measurement": "IC50", "setting": "[7]", "result": 0.02, "unit": "µg/mL"},
      {"measurement": "IC50", "setting": "[8]", "result": 0.02, "unit": "µg/mL"}
    ]},
    {"binder": "B3", "values": [
      {"measurement": "Neutralization IC50 (plaque reduction assay, Vero cells)", "setting": "[9]", "result": 0.018, "unit": "µg/mL"}
    ]}
  ]
}
